Reference: the supplement of paper PMC12042874
± gives the uncertainty stated by the source.

Assay: amyloid nucleation score (Sup35N fusion, yeast selection) (log enrichment); library NNK1; higher = more nucleation; inactive = no reads after selection
In short: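 Psi-negative yeast expressed Sup35N fused to peptides of 20 random codons. They were induced 24 hours with 100 μM copper sulfate, grown 7 days at 30°C without adenine and uracil, and their plasmid inserts from input and output were Illumina-sequenced. The nucleation score is the DiMSum log enrichment of output over input reads, centred on the mode score of non-aggregating sequences. Sequences with under 100 input reads were excluded.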
TYFSDLVRRRRCKAGNVWFL showed an amyloid nucleation score of 1.58 ± 0.74.
For TVITFRLAT, the amyloid nucleation score was 1.69 ± 0.26.
GKNFYREDAVSVCRWL gave an amyloid nucleation score of 0.342 ± 0.64.
For ISFSSYYNLVLDYLELSQCL, the amyloid nucleation score was “inactive”.
With FWRNEVMLSCVGTAMARRVF the amyloid nucleation score was 0.398 ± 0.37.
Work on CFLETMDFGH yielded an amyloid nucleation score of -0.472 ± 1.2.
SNSFYREVNWGNRT showed an amyloid nucleation score of 0.216 ± 0.57.
For LFVRFKTYVLP, the amyloid nucleation score was 0.663 ± 0.3.
Substance TDLFYMMCSRRQTYVCNLVR has an amyloid nucleation score of 0.456 ± 0.43.
For DPARGWPQNVNLFLLSNRR, the amyloid nucleation score was 1.01 ± 0.63.
Substance LLNFCIWAKCWYRLVCNC has an amyloid nucleation score of 0.209 ± 0.93.
With PFNKKFRYVMPRLQRTHVFM the amyloid nucleation score was “inactive”.
With GSTQPCRNTFLLFLPALTIP the amyloid nucleation score was “inactive”.
In the case of RVDHVGRGQSREGGPDAGRV, the amyloid nucleation score is reported as 0.217 ± 0.26.
With NMSLSWRTNRYAWPMVCLIR the amyloid nucleation score was 0.182 ± 0.23.
Substance VKYTYDS has an amyloid nucleation score of -0.238 ± 0.65.
NRLIGGLFSCVCTADQSTHS showed an amyloid nucleation score of 8.419 ± 0.047.
With CMWPFTDYTIIKTSLYTWTN the amyloid nucleation score was -1.09 ± 0.53.
PKSIGAFLTCHISRHVYYVI showed an amyloid nucleation score of 1.08 ± 0.66.
PRLYGISRKSYVLSIFDVVS showed an amyloid nucleation score of 0.245 ± 0.21.
Work on IVGST yielded an amyloid nucleation score of -0.894 ± 0.47.
In the case of YGCSVYTVCMF, the amyloid nucleation score is reported as 8.243 ± 0.071.
In the case of FSCSVDLKSSHMEVARNGYP, the amyloid nucleation score is reported as “inactive”.
For GLCNGCIFWRVKRIKGLKWF, the amyloid nucleation score was -0.381 ± 0.22.
GHLQGPLSTLIHDW gave an amyloid nucleation score of 0.564 ± 0.47.
HVQLELTSCKEGGGCRS showed an amyloid nucleation score of 0.379 ± 0.78.
Substance YADRFRASASPNMCDRCSLW has an amyloid nucleation score of 4.01 ± 0.098.
For WRDTDCGLIN, the amyloid nucleation score was “inactive”.
For FQLGAHKLRAWLDRGYPEFA, the amyloid nucleation score was -0.202 ± 0.64.
For RCDGTQDKCWDKSLLFGERR, the amyloid nucleation score was 0.618 ± 0.45.
In the case of ISAMSVW, the amyloid nucleation score is reported as -0.031 ± 0.74.
With DWVVSCAYGFSSARNGGVCL the amyloid nucleation score was -0.039 ± 0.39.
For YYVFITIYVVSLVCNLSCYF, the amyloid nucleation score was -0.573 ± 0.74.
For MQTLPIR, the amyloid nucleation score was -0.519 ± 0.46.
WKFLFVVFIYSNYVVGLLDN gave an amyloid nucleation score of -0.915 ± 0.67.
With SARHSMAEAMEYYIFGWVPR the amyloid nucleation score was -1.16 ± 1.2.
In the case of WVAINPCV, the amyloid nucleation score is reported as 0.464 ± 0.88.
PKMPGMVYDTPN showed an amyloid nucleation score of -1.49 ± 2.4.
In the case of CRRIHFLVTMVTGSPLCLSG, the amyloid nucleation score is reported as -0.627 ± 0.32.
For SYCTGLFWEKRVVIMLVSQV, the amyloid nucleation score was -0.103 ± 0.53.
IVQTHYN gave an amyloid nucleation score of -0.817 ± 1.7.
In the case of LLFKNRISPITTI, the amyloid nucleation score is reported as 0.174 ± 0.47.
With HSCYLANCLSRVQGSKRDTE the amyloid nucleation score was -0.911 ± 0.54.
With AVRGINCCKRQSWKCNLCM the amyloid nucleation score was 0.915 ± 0.56.
Work on PWSPTVIRPVFSEKGQFSQL yielded an amyloid nucleation score of -0.538 ± 0.59.
Work on SWGMVFLNSRVPWRVMFNSC yielded an amyloid nucleation score of 0.154 ± 0.48.
Work on NECLWSSFYLIICFLVCYYY yielded an amyloid nucleation score of 0.278 ± 0.46.
RVFLQTGWVCGVRHANNRLR showed an amyloid nucleation score of -0.006 ± 0.87.
In the case of GLWQWAIHLRWIGIEHTQTR, the amyloid nucleation score is reported as 0.295 ± 0.97.
VSKTTRSCCWELFEA gave an amyloid nucleation score of -0.052 ± 0.42.
Substance TIVFMRAHIFW has an amyloid nucleation score of 0.788 ± 0.25.
RCGLAQSSVSSSVKGPRVTW showed an amyloid nucleation score of -0.31 ± 0.6.
In the case of RTDLGVRIKF, the amyloid nucleation score is reported as 0.77 ± 0.55.
TWQNRTSLIEVTSYMFHGWV gave an amyloid nucleation score of 0.294 ± 0.59.
Substance FDMCSGISGD has an amyloid nucleation score of 0.839 ± 0.36.
For LRKALRLDVHLGTNLYLNSF, the amyloid nucleation score was 0.542 ± 0.75.
In the case of TEELYTGVTFL, the amyloid nucleation score is reported as -1.93 ± 1.5.
MRWSIFRSTWFCAYSSLVSS gave an amyloid nucleation score of 0.131 ± 0.5.
TVIRSVIIPITPPIIR showed an amyloid nucleation score of 1.57 ± 0.56.
In the case of SLINTRVPPLENNAC, the amyloid nucleation score is reported as -0.443 ± 0.51.
VFLVTIWRSIMVLWNTVW showed an amyloid nucleation score of -0.284 ± 0.47.
With EGACVKSRVWDRINVTGRSR the amyloid nucleation score was 1.25 ± 0.68.
For SLFEFWSDNFNQEQ, the amyloid nucleation score was 1.49 ± 0.76.
In the case of RLMDTYAEAHTQDRDMIRDV, the amyloid nucleation score is reported as 0.286 ± 0.49.
For LSLSYHMLSYI, the amyloid nucleation score was “inactive”.
SANMKYRTLKQSLG gave an amyloid nucleation score of 0.176 ± 0.52.
Substance MHWFRVN has an amyloid nucleation score of 0.324 ± 0.3.
LYVTLV gave an amyloid nucleation score of 2.23 ± 0.17.
Substance ILKSSGICFDGLPTKFNL has an amyloid nucleation score of 0.127 ± 0.25.
KTGFYGFMVGM showed an amyloid nucleation score of 4.54 ± 0.063.
LFYNICFYA gave an amyloid nucleation score of 6.738 ± 0.048.
QLFVRFGRSARLVIAESQKA showed an amyloid nucleation score of -0.077 ± 0.33.
For NLRIGFVEQLSSGVLDGPDD, the amyloid nucleation score was 0.471 ± 0.97.
SYPTKLPWFGGGYNRGSMSS gave an amyloid nucleation score of -0.481 ± 0.58.
With YHKTYIRYWAIVFDMMVRFG the amyloid nucleation score was 0.372 ± 1.4.
CVSEDDMLLDYDPVCKFVWW gave an amyloid nucleation score of 2.62 ± 0.15.
VTIHETCRVWRFVRTDRRWG showed an amyloid nucleation score of 0.553 ± 0.46.
With KQNNGFGWEYEAGGLHRKGA the amyloid nucleation score was -0.989 ± 2.7.
SIVNVDVALSHLCSYQRSRM gave an amyloid nucleation score of 4.11 ± 0.1.
Work on WGVALRDAATAVDVGLVVRF yielded an amyloid nucleation score of 0.37 ± 0.62.
With QRRHYTWMLIRKRSSLHKAR the amyloid nucleation score was -0.462 ± 0.59.
With LMTNKKNVMMRRIHTGVASN the amyloid nucleation score was 0.368 ± 0.97.
Substance CFPFIFRIGFTNNGADSLVK has an amyloid nucleation score of -0.507 ± 0.63.
With LGALIYNSAFN the amyloid nucleation score was “inactive”.
Work on TFFLVLVSPD yielded an amyloid nucleation score of 0.059 ± 1.4.
